Results from patent US20110154538A1 (UNITED STATES OF AMERICA AS REPRESENTED BY THE SECRETARY OF …, published 2011).

Target: T1, Gal4 activation domain (AD) negative control (UniProt P04386 768-881)
T1 sequence: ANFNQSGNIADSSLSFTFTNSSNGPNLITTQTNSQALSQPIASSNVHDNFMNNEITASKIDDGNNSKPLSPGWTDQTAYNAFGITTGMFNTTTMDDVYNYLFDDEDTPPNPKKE
Experiment: yeast two-hybrid, growth on selective medium

B1: AltMV-Po coat protein (other)
chain: MSTPFPQVTQEQIDAFTPHTTSNLLPSPEQLTTIASLLVAAKVPAASTTTIALELVNFCYDNGSSAYTVVVGPSSISGVSLSQVANIVKASGTSLRKFCRFFAPIIWNLRTDKTPPANWEANGFKPTEKFAAFDFFDGVENPAAMQPPGGLVRAPSQAERIANATNKQVNLFQAAAQDNNFASNSAFITKGQLSSNSPTIQYLPPPE
notes: also called AltMV-Po CP; CP-Po
B1: no binding.
